For experiment [1], the target named is D3H44 light chain Q124R_Q160K_T178R, N-terminal HA or FLAG tag. Put plainly: LCCA, SPR of light chain tags, L1:L2 DNA 1:3 norm. to 1:1; other light chain m23.
Experiment [2] concerns the target D3H44 light chain Q124E_V133E, N-terminal HA or FLAG tag. Kind of experiment: LCCA, SPR of light chain tags, L1:L2 DNA 1:9 norm. to 1:1; other light chain m17.
Experiment [3] has as its target D3H44 light chain Q124E_T178E_T180E, N-terminal HA or FLAG tag. The experiment is described as above.
Experiment [4] has as its target D3H44 light chain Q124R_Q160K_T178R, N-terminal HA or FLAG tag. Kind of experiment: LCCA, SPR of light chain tags, L1:L2 DNA 1:9 norm. to 1:1; other light chain m21.
For experiment [5], the target named is D3H44 light chain S131E, N-terminal HA or FLAG tag. Kind of experiment: LCCA, SPR of light chain tags, L1:L2 DNA 1:3 norm. to 1:1; other light chain m14.
The target is the same in experiment [6]. Kind of experiment: LCCA, SPR of light chain tags, L1:L2 DNA 1:3 norm. to 1:1; other light chain m17.
Experiment [7] concerns the target D3H44 light chain Q124E_V133E, N-terminal HA or FLAG tag. Described as above.
Experiment [8] deals with D3H44 light chain Q124E_T178E_T180E, N-terminal HA or FLAG tag. Described as above.
Experiment [9] has as its target D3H44 light chain Q124E_Q160E_T178E, N-terminal HA or FLAG tag. The experiment is described as above.
Experiment [10] has as its target D3H44 light chain Q124E_T178E, N-terminal HA or FLAG tag. Described as above.
In experiment [11] the target is D3H44 light chain Q124R_Q160K_T178R, N-terminal HA or FLAG tag. Kind of experiment: LCCA, SPR of light chain tags, L1:L2 DNA 1:3 norm. to 1:1; other light chain m18.
Experiment [12] has the same target. Kind of experiment: LCCA, SPR of light chain tags, L1:L2 DNA 1:3 norm. to 1:1; other light chain m19.
In experiment [13] the target is D3H44 light chain Q124R_T178R, N-terminal HA or FLAG tag. The experiment is described as above.
The target of experiment [14] is D3H44 light chain Q124R_Q160K_T178R, N-terminal HA or FLAG tag. Kind of experiment: LCCA, SPR of light chain tags, L1:L2 DNA 1:9 norm. to 1:1; other light chain m18.
For experiment [15] the target is unchanged. Put plainly: LCCA, SPR of light chain tags, L1:L2 DNA 1:3 norm. to 1:1; other light chain m26.
For experiment [16] the target is unchanged. Put plainly: LCCA, SPR of light chain tags, L1:L2 DNA 1:3 norm. to 1:1; other light chain m21.
The target of experiment [17] is D3H44 light chain Q124R_T178R, N-terminal HA or FLAG tag. Put plainly: LCCA, SPR of light chain tags, L1:L2 DNA 1:3 norm. to 1:1; other light chain m16.
For experiment [18] the target is unchanged. Put plainly: LCCA, SPR of light chain tags, L1:L2 DNA 1:9 norm. to 1:1; other light chain m16.
The target is the same in experiment [19]. Put plainly: LCCA, SPR of light chain tags, L1:L2 DNA 1:3 norm. to 1:1; other light chain m15.
Experiment [20] has the same target. Put plainly: LCCA, SPR of light chain tags, L1:L2 DNA 1:3 norm. to 1:1; other light chain m20.
Experiment [21] has as its target D3H44 light chain Q124E_S176L_T180E, N-terminal HA or FLAG tag. Kind of experiment: LCCA, SPR of light chain tags, L1:L2 DNA 1:3 norm. to 1:1; other light chain m14.
For experiment [22], the target named is D3H44 light chain Q124E_S131T_T178Y_T180E, N-terminal HA or FLAG tag. Described as above.
Experiment [23] has as its target D3H44 light chain Q124E_S131T_T178F_T180E, N-terminal HA or FLAG tag. The description is as above.
In experiment [24] the target is D3H44 light chain Q124E_V133Y_T180E, N-terminal HA or FLAG tag. The experiment is described as above.
Experiment [25] has as its target D3H44 light chain Q124E_V133W_T180E, N-terminal HA or FLAG tag. The description is as above.
In experiment [26] the target is D3H44 light chain Q124R_T178R, N-terminal HA or FLAG tag. Kind of experiment: LCCA, SPR of light chain tags, L1:L2 DNA 1:3 norm. to 1:1; other light chain m25.
Experiment [27] has the same target. Kind of experiment: LCCA, SPR of light chain tags, L1:L2 DNA 1:3 norm. to 1:1; other light chain m22.
Experiment [28] deals with D3H44 light chain Q124E_S176L_T180E, N-terminal HA or FLAG tag. Put plainly: LCCA, SPR of light chain tags, L1:L2 DNA 1:9 norm. to 1:1; other light chain m14.
The target in experiment [29] is D3H44 light chain Q124E_S131T_T178Y_T180E, N-terminal HA or FLAG tag. The description is as above.
The target of experiment [30] is D3H44 light chain Q124R_T178R, N-terminal HA or FLAG tag. Put plainly: LCCA, SPR of light chain tags, L1:L2 DNA 1:9 norm. to 1:1; other light chain m15.
Experiment [31] deals with D3H44 light chain Q124E_V133D_S176L, N-terminal HA or FLAG tag. Kind of experiment: LCCA, SPR of light chain tags, L1:L2 DNA 1:9 norm. to 1:1; other light chain m17.
Experiment [32] deals with D3H44 light chain Q124R_Q160K_T178R, N-terminal HA or FLAG tag. Put plainly: LCCA, SPR of light chain tags, L1:L2 DNA 1:3 norm. to 1:1; other light chain m27.
Experiment [33] has as its target D3H44 light chain Q124E_V133D_S176L, N-terminal HA or FLAG tag. Kind of experiment: LCCA, SPR of light chain tags, L1:L2 DNA 1:3 norm. to 1:1; other light chain m17.
Experiment [34] concerns the target D3H44 light chain Q124R_Q160K_T178R, N-terminal HA or FLAG tag. Kind of experiment: LCCA, SPR of light chain tags, L1:L2 DNA 1:9 norm. to 1:1; other light chain m27.
In experiment [35] the target is D3H44 light chain Q124R, N-terminal HA or FLAG tag. Kind of experiment: LCCA, SPR of light chain tags, L1:L2 DNA 1:3 norm. to 1:1; other light chain m18.
Experiment [36] concerns the target D3H44 light chain Q124E_V133E, N-terminal HA or FLAG tag. Kind of experiment: LCCA, SPR of light chain tags, L1:L2 DNA 1:3 norm. to 1:1; other light chain m24.

Consider “D3H44 Fab heavy chain L143E_K145T, ABD2-His6 tagged”, for which the H1L1:H1L2 normalized median ratio in experiment [1] worked out at 59%; in experiment [2], 13%; in experiment [3] it was 19%; in experiment [4], 81%; in [5], 54%; in experiment [6] it was 53%. Besides, the H1L1:H1L2 normalized median ratio was 21% in experiment [7]; 18% in [8]; 41% in [9]; 41% in experiment [10]; 79% in experiment [11]; 47% in [12]. Moreover, the H1L1:H1L2 normalized median ratio in experiment [13] is 46%; in [14], 37%; in experiment [15], 59%; in experiment [16], 82%. Besides, the H1L1:H1L2 normalized median scalar value ln(r1/f1) is 0.37 in [1]; 1.44 in experiment [4]; 1.35 in experiment [11]; -0.14 in experiment [12]; -0.16 in experiment [13]; 0.36 in experiment [15]. The substance further gave an H1L1:H1L2 normalized median scalar value ln(r1/f1) in [16] of 1.52.
As for “D3H44 Fab heavy chain L143E_K145T_Q179E_S188L, ABD2-His6 tagged”, the H1L1:H1L2 normalized median ratio was determined as 87% in [17]; 90% in [18]; 83% in experiment [19]; 77% in experiment [20]; 13% in [21]; 17% in experiment [22]. The H1L1:H1L2 normalized median ratio in experiment [23] was determined as 23%; in experiment [28], 10%; in [29], 21%; in experiment [30], 79%. For the same substance, the H1L1:H1L2 normalized median scalar value ln(r1/f1) amounted to 1.9 in experiment [17]; 2.25 in experiment [18]; 1.62 in [19]; 1.19 in experiment [20]; 1.33 in [30]. The H2L2:H2L1 normalized median ratio came to 29% in experiment [24], 25% in [25], 75% in experiment [26] and 71% in experiment [27].
As to “D3H44 Fab heavy chain L143K, ABD2-His6 tagged”, the H2L2:H2L1 normalized median ratio amounted to 91% in experiment [31], 6% in experiment [32], 94% in experiment [33] and 9% in experiment [34].
Take “D3H44 Fab heavy chain L143R, ABD2-His6 tagged”: the H2L2:H2L1 normalized median ratio turned out to be 93% in [2]; 96% in [7]; 4% in experiment [35]; 4% in [11]; 7% in [14]; 96% in experiment [36].
For the substance “D3H44 Fab heavy chain S186K, ABD2-His6 tagged”, the H2L2:H2L1 normalized median ratio in [19] was 5%; in experiment [20] it was 4%; in [5], 98%; in experiment [22], 95%; in experiment [23], 96%; in [6], 99%. Besides, the H2L2:H2L1 normalized median ratio came out at 98% in experiment [10]; 1% in [12]; 2% in [13]; 89% in experiment [29]; 2% in experiment [15]; 11% in experiment [30].

(Values after US11306156.)
